A short description of this data set: yeast display, Sf9 membrane polyspecificity reagent, FACS + sequencing; frameworks hold sequencing errors. The method in brief:
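Sorting gates, low and high (top ~1%), were placed on anti-HA fluorescence to track expression and on streptavidin fluorescence to track reagent binding. A clone's polyreactivity label is taken from the gate it came out of. The reagent was 10% biotinylated, detergent-solubilized Sf9 membrane, applied for 1 hour at 4 °C to galactose-induced yeast display cells.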
As for “QVQLVESGGGLVQAGGSLRLSCASSGSTLGVNAMGWYRQAPGKVRELVADISVRTDSTYYADSVKGRFTISRDNAKNTVYLQMNSLKPEDTAVYYCAADVPYYYPGFYSYYDDSDYWGQGTQVTVSS”, the “polyreactivity (PSR sort gate)” value was “low polyreactivity”.
As to “QVQLVESGGGLVQAGGSLRLSCASSGYTFRYYAMGWYRQAPGKERELVAAITRRGATTYYADSVKGRFTISRDNAKNTVYLQMNRLQPEDTADYYCNAVYQYGSFVTAAGNYWGQGTQVTVSS”, the “polyreactivity (PSR sort gate)” value is on record as “high polyreactivity”.
Turning to “QVQLVESGGGLVQAGGSLRLSCASSRINFYLYAMGWYRQAPGIERELVAAISRRGVSTYYADSVKGRFTISRDNAKNSVYLEMKSLKAEDTGVYYCAAAGFGYTGEEFWGQGTQVTVSS”, the “polyreactivity (PSR sort gate)” value was “high polyreactivity”.
In the case of “QVQLVESGGGLVQAGGSLRLSCASYGRIIGIYAMGWSRPAHGKERELVATITDSDDSTYYADSVKGRFTISRDNAKNTVYLQMNSLKPEDTAVYFCATAFSYGGGAYDYWGHGTQVTVSS”, the “polyreactivity (PSR sort gate)” value is listed as “low polyreactivity”.
For “QVQLVESGGGLVQAGGSLRLSCATSGITFIGKYAMGWYRQAPGKERELVAAISWSGGRTYYADSVKGRFTISRDNAKNSDYLQMNSLKPEDTAVYYCAVYPRDAERYGYWGQGTQVTVSS”, the “polyreactivity (PSR sort gate)” value is recorded as “high polyreactivity”.
In the case of “QVQLVESGGGLVQAGGSLRLSCATSGRTLGGYAMGWYRHAPGKERELVASITSTSSTYADSVKGRFTISRDNAKNTVYLQMNSLKPEDTAVYYCAADPRRYRGFGYVYGGFYYWGQGTQVTVSS”, the “polyreactivity (PSR sort gate)” value is reported as “low polyreactivity”.
“QVQLVESGGGLVQAGGSLRLSCATSGSIFVFNAMGWYRQAPGKERELVAAIDTSDDITYYADSVKGRFTISRDNAKNTVYLQMNSLKPEDTAVYYCNAYYTYRFNYWGQGTQVTVSS”: the “polyreactivity (PSR sort gate)” value is “high polyreactivity”.
With “QVQLVESGGGLVQAGGSLRLSCDASGFISFGNAMGWNRQAPRKERELVAGISRSGGSTYYADSVKGRFTISRDNAKNTVYLQMISLKPEDTAVYYCATRVAIYPYRFDYWGQGTQVTVSS”, the “polyreactivity (PSR sort gate)” value is “high polyreactivity”.
With “QVQLVESGGGLVQAGGSLRLSCDASGFTFARYNMGWYRQAPGKERELVAAISSRGSSTYYADSVKGRFTISRDNAKNTVYLQMNSLKAEDTAVYYCAAPPRYGYDYWGQGTQVTVSS”, the “polyreactivity (PSR sort gate)” value is recorded as “high polyreactivity”.
Turning to “QVQLVESGGGLVQAGGSLRLSCDASGGPFYLNAMGWYRPAPGTERELVAGITWGGGRTYYADSVKGLFTISRDNAKNTVYLQMNSLKPEDTAVYYCAAGAWRGPYSGYYYWGQGTQVTVSS”, the “polyreactivity (PSR sort gate)” value was “low polyreactivity”.
Consider “QVQLVESGGGLVQAGGSLRLSCDASGGTITNYAMGWYRQAPGKERELVAAITDSGATTYYADSVKGRFTISLVTAKNPVSLQMNSLKPEDTAVYDCNAELDLYTYFDYWGQGTQVTVSS”, for which the “polyreactivity (PSR sort gate)” value was “low polyreactivity”.
As for “QVQLVESGGGLVQAGGSLRLSCDASGIIFASYAMGWYRQAPGKERELVAAISGGGSTYYADSEKGRFTISRDNAKNTVYLQMNSLKPVDTAVYYCNAEAYYRWLTNIWYSDFDYWGLGTQVTVSS”, the entry is “low polyreactivity”; as for “QVQLVESGGGLVQAGGSLRLSCDASGIIFRGNSMGWYRQAPGKERELVAAISRSGRTNYADSVKGSFTISRDNAKNTVYLQMYSLKPEDTAVYYCAVDKRYGRVFGRDYDYWGQGTQVTESS”, “high polyreactivity”; as for “QVQLVESGGGLVQAGGSLRLSCDASGIIIRWYAMGWYRQAPGKERELVAAITSSGGRTYYADSVKGRFTISRDNAKNTVYLQMNSLKPEDTAVYYCAAQRYSHLYRGRFAYRYYYWGQGTQVTVSS”, “high polyreactivity”.
For “QVQLVESGGGLVQAGGSLRLSCDASGITLRTYSIGWYRQAPGKERELVAAISKSGDRTYYADSVKGRFTISRDNAKNTVYLQMNSLKPEDNAVYYCAKATNAQYLYDYWGQGTHVTVSS”, the “polyreactivity (PSR sort gate)” value is “low polyreactivity”.
As for “QVQLVESGGGLVQAGGSLRLSCDASGLIFRPYARGWFRQAPGKERELVAAITSGGSTDYADSVKGRFTISRDNAKNTVYLLMNSLKPADTAVYYCNADIYPHDGYPWQGDYDYWGQGTQVTVSS”, the entry is “low polyreactivity”; as for “QVQLVESGGGLVQAGGSLRLSCDASGLTFPSYAMGWYRQAPGKERELVAAISSGDSTNYADSVKGRFTISRDNAKNTVYLQMNSLKPEDTAVYYCAVGLPHGGRRLYGSWYRFDYWGQGTQVTVSS”, “low polyreactivity”.
As for “QVQLVESGGGLVQAGGSLRLSCDASGLTFSFYVMGWYRQAPVKERELVAAISRSGTSTYYSDSVKGRFTISRDNAKNTVYLQMNSLKPEDTAVYYCADRGRWLYYLYELDYWGQGTQVTESS”, the entry is “high polyreactivity”; as for “QVQLVESGGGLVQAGGSLRLSCDASGLTFSGYVMGWYRQAPGKESELVAAISLSGGSTYYADSVKGRFTISRDNAKNTVYLQMNSLKPEDTAVYYCAARTPFYNSYRRDYWGQGTQVTVSS”, “high polyreactivity”.
Consider “QVQLVESGGGLVQAGGSLRLSCDASGLTIYGYAIGSYRQAPGKERELVAAITSGDSTYYADSVKGRFTISRDTAKNTVYFQMNSLKPDDTAVYYCAAVGGYPRYGYWGQGTQVTVSS”, for which the “polyreactivity (PSR sort gate)” value was “high polyreactivity”.
Take “QVQLVESGGGLVQAGGSLRLSCDASGRIFSLYAMGWYRQAPGKERELVAAISRRSGNTNYADSVKGRFTISRDNAKNNVFLQLNSLKPEDTAVYFCAARPGAISSTSPYDYWGEGTQVTVSS”: the “polyreactivity (PSR sort gate)” value is recorded as “high polyreactivity”.
In the case of “QVQLVESGGGLVQAGGSLRLSCDASGRIFVVYAMGWSRQAPGKERELVAAITGGGRTNYADSVKGRFTISRDNAKNTVYLQMNSLKPEDTAVYYCAAGTRSDARRYYYWGQGTQVTVSS” it was “low polyreactivity”; in that of “QVQLVESGGGLVQAGGSLRLSCDASGRTFGYYAMGWYRHAPGQERELVAGIRSSGGSTYYADSVKGRFTISRDNAKNTVYLQMNSLKPEDTAVYYCAARLRSYHYRYGYDYWGQGTQVTVSS”, “high polyreactivity”.
Consider “QVQLVESGGGLVQAGGSLRLSCDASGRTFIVYAMGWYRQEPGKERELVARISSGSRTSYADSVKGRFTISRDNAKNTVYLQMNSLKPEDTAVYYCNAREYLKPGVPYYSQQLDYWGQGTQVTVSS”, for which the “polyreactivity (PSR sort gate)” value is listed as “low polyreactivity”.
Turning to “QVQLVESGGGLVQAGGSLRLSCDASGSIFDGYGMGWYRQAPGKERELVASITCNDGSTYYADSVKGRFTISRDNANNTFYLQMNSLKPEDTAVYYCASDQWGYEYDYWGQGTQVTVSS”, the “polyreactivity (PSR sort gate)” value was “low polyreactivity”.
In the case of “QVQLVESGGGLVQAGGSLRLSCDASGSIFGSYAMGWYRQAPGKEWELVAAISRRGGSTYYADSVKGRFTISRDNAKNTVYLQMNSLKAEDTAVYYCARRDYGVLNKGLGQEGDYWGQGTQVTVSS” it was “low polyreactivity”.
With “QVQLVESGGGLVQAGGSLRLSCDASGSIFNYYAMGWYRQAPGKERELVATITRGGSTYYADSVKGRFTISRDNAKNTVYLQMNILKPEDTAVYYCAKVGRSTAYQNGYDYWGQGTQVTVSS”, the “polyreactivity (PSR sort gate)” value is on record as “low polyreactivity”.
Take “QVQLVESGGGLVQAGGSLRLSCDASGSIFQRYAMGWYRPAPGKERELVAGINWSGGRTYYADSVKGRFTISRDNAKNTVYLQMISLKPEDTAVYYCAAARYTRYDYWGQGTQVTVSS”: the “polyreactivity (PSR sort gate)” value is “high polyreactivity”.
Regarding “QVQLVESGGGLVQAGGSLRLSCDASGSIFRGYAMGWYRQAPGKEREFVAAISKRSGSTYYADSVKGRFTISRDNAKNSVYLQMNSLKPEDTAVYYCAKERVAAAGGYWGQGTQVTVSS”, the “polyreactivity (PSR sort gate)” value is “high polyreactivity”.
Regarding “QVQLVESGGGLVQAGGSLRLSCDASGSILWLNAMGWYRQAPGKERELVADITRGGSTYYADSVKGRFTISRDNAKNTVYLQMNSLKPEDTAVYYCAARLYGGYDWGQGTQVTVSS”, the “polyreactivity (PSR sort gate)” value is reported as “high polyreactivity”.
